# Source: US20260053904A1 (BIOATLA, published 2026)
# T1: human EpCAM expressed on cells (CHO, Colo205, 293) (human, UniProt P16422 24-314)
# T1 construct: whole, on cells; also called CHO cells expressing human EpCAM; Colo205 cells expressing human EpCAM
# T1 sequence (looked up): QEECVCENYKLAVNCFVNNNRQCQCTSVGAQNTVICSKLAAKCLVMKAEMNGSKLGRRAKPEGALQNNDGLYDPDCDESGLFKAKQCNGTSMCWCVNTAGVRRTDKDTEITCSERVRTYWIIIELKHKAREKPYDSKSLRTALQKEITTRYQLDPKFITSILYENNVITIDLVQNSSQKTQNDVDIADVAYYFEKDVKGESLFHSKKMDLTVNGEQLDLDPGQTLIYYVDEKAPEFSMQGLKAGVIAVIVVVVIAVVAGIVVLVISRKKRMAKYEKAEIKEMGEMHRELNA
# T2: recombinant human EpCAM extracellular domain (human, UniProt P16422 24-265)
# T2 construct: extracellular domain; Plate-coated antigen of the ELISAs; also called human EpCAM ECD; recombinant EpCAM antigen
# T2 sequence (looked up): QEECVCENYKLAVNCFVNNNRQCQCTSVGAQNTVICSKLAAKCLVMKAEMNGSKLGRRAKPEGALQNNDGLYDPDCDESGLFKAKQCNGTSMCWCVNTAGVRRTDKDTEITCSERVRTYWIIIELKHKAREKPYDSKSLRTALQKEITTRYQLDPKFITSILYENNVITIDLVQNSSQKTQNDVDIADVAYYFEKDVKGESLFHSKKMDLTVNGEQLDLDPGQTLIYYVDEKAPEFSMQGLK
# Experiments:
# [1] = target: T1, human EpCAM expressed on cells (CHO, …); test: FACS of MMAE conjugates on Colo205 cells expressing human EpCAM, pH 7.4
# Procedure: (§1) Binding activities of the conjugated humanized conditionally active anti-EpCAM antibodies (with MMAE) to Colo205 cells expressing human EpCAM was measured by FACS at two different pH: 6.0 and 7.4. […] The EC50 values for binding to the Colo205 cells expressing human EpCAM by the conjugated humanized conditionally active anti-EpCAM antibodies are summarized in Table 16.
# [2] = target: T3, cyno EpCAM expressed on 293 cells (cynomolgus monkey); test: FACS of MMAE conjugates on 293 cells expressing cyno EpCAM, pH 7.4
# T3 construct: whole, on cells; also called 293 cells expressing cyno EpCAM
# Procedure: (§2) A similar FACS analysis was also carried out using 293 cells expressing cyno EpCAM. […] The EC50 values for binding to the 293 cells expressing cyno EpCAM by the conjugated humanized conditionally active anti-EpCAM antibodies are summarized in Table 18.
# [3] = target: T1, human EpCAM expressed on cells (CHO, …); test: FACS of MMAE conjugates on 293 cells expressing human EpCAM, pH 6.0
# Procedure: (§3) A similar FACS analysis was also carried out using 293 cells expressing human EpCAM. […] The EC50 values for binding to the 293 cells expressing human EpCAM by the conjugated humanized conditionally active anti-EpCAM antibodies are summarized in Table 17.
# [4] = target: T4, cyno EpCAM (recombinant, ELISA antigen) (cynomolgus monkey); test: ELISA of MMAE conjugates, cyno EpCAM, pH 7.4
# T4 construct: extracellular domain; also called cynomolgus EpCAM extracellular domain
# Procedure: (§4) A similar ELISA analysis was also carried out using cyno EpCAM to measure the binding affinities of the conjugated humanized conditionally active anti-EpCAM antibodies. […] The EC50 values for binding to the cyno EpCAM by the conjugated humanized conditionally active anti-EpCAM antibodies are summarized in Table 13.
# (§5) The ELISA assay was performed using the following protocol: [0388] 1) Coat ELISA plates with 100 μL of 0.5 μg/mL (06_20_17 and 06_28_17 Experiments) or 1 μg/mL (07_06_17 and 07_11_17 Experiments) recombinant EpCAM antigen in carbonate-bicarbonate coating buffer [0389] 2) Cover plates with sealing film and incubate overnight at 4° C. [0390] 3) Decant plates and tap out residual liquid on a stack of paper towels [0391] […] 5) Add 200 μL of various pH incubation buffers to the wells according to the sample map.
# [5] = target: T4, cyno EpCAM (recombinant, ELISA antigen); test: ELISA of MMAE conjugates, cyno EpCAM, pH 6.0
# Procedure: as §4, §5
# [6] = target: T4, cyno EpCAM (recombinant, ELISA antigen); test: ELISA with pH titration, cyno EpCAM; ratio of binding activities at pH 6.0 and pH 7.4
# Procedure: (§6) Binding activities of the conjugated humanized conditionally active anti-EpCAM antibodies to cyno EpCAM were also measured by ELISA with pH titration. […] The ratios of binding activities at pH 6.0 and pH 7.4 to the cyno EpCAM by the conjugated humanized conditionally active anti-EpCAM antibodies, as well as their pH inflection points are summarized in Table 15.
# as §5
# [7] = target: T1, human EpCAM expressed on cells (CHO, …); test: cell-based or functional assay
# [8] = target: T2, recombinant human EpCAM extracellular …; test: ELISA with pH titration, human EpCAM
# Procedure: (§7) Binding activities of conjugated humanized conditionally active anti-EpCAM antibodies to human EpCAM were measured by ELISA with pH titration. […] The ratios of binding activities to human EpCAM of the conjugated humanized conditionally active anti-EpCAM antibodies at pH 6.0 and pH 7.4, as well as their pH inflection points are summarized in Table 14.
# as §5
# [9] = target: T1, human EpCAM expressed on cells (CHO, …); test: FACS of MMAE conjugates on Colo205 cells expressing human EpCAM, pH 6.0
# Procedure: as §1
# [10] = target: T3, cyno EpCAM expressed on 293 cells; test: FACS of MMAE conjugates on 293 cells expressing cyno EpCAM, pH 6.0
# Procedure: as §2
# [11] = target: T2, recombinant human EpCAM extracellular …; test: ELISA of MMAE conjugates, human EpCAM, pH 6.0
# Procedure: (§8) The humanized conditionally active anti-EpCAM antibodies were conjugated to MMAE to create antibody drug conjugates. Binding activities of the conjugated humanized conditionally active anti-EpCAM antibodies to human EpCAM were measured by ELISA at pH 6.0 and pH 7.4 at different antibody concentrations. […] The EC50 values for binding to the human EpCAM by the conjugated humanized conditionally active anti-EpCAM antibodies are summarized in Table 12.
# as §5
# [12] = target: T1, human EpCAM expressed on cells (CHO, …); test: FACS of MMAE conjugates on 293 cells expressing human EpCAM, pH 7.4
# Procedure: as §3
# [13] = target: T2, recombinant human EpCAM extracellular …; test: ELISA of MMAE conjugates, human EpCAM, pH 7.4
# Procedure: as §8, §5
# [14] = target: T4, cyno EpCAM (recombinant, ELISA antigen); test: ELISA with pH titration, cyno EpCAM
# Procedure: as §6, §5
# [15] = target: T2, recombinant human EpCAM extracellular …; test: ELISA with pH titration, human EpCAM; ratio of binding activities at pH 6.0 and pH 7.4
# Procedure: as §7, §5
# T3 sequence (Q1WER1 24-314): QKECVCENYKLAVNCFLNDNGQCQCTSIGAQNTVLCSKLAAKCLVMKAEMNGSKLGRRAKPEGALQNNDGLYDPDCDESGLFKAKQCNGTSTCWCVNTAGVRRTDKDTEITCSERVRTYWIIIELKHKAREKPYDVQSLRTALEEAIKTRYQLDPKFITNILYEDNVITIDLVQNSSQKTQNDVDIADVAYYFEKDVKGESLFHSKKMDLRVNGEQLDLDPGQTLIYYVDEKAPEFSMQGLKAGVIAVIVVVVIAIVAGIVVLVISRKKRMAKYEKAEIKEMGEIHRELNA
# T4 sequence (Q1WER1 24-265): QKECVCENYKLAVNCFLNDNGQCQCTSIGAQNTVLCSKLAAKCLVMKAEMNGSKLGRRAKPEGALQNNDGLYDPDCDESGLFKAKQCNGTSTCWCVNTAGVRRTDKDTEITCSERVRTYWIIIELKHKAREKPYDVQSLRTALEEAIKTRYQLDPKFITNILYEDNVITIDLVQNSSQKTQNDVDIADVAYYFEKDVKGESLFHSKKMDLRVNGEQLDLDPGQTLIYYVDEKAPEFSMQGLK
EC50 [1] [µg/mL],EC50 [2] [µg/mL],EC50 [3] [µg/mL],EC50 [4] [µg/mL],EC50 [5] [µg/mL],ratio (pH 6.0/7.4) [6],pH inflection point [8] [pH],EC50 [9] [µg/mL],EC50 [10] [µg/mL],EC50 [11] [µg/mL],EC50 [12] [µg/mL],EC50 [13] [µg/mL],pH inflection point [14] [pH],ratio (pH 6.0/7.4) [15],Binder,"IC50 for the in vitro killing of Colo205 cells, pH6.0 [7] [ng/mL]","IC50 for the in vitro killing of Colo205 cells, pH7.4 [7] [ng/mL]",ratio (pH7.4/pH6.0) of the IC50 for the in vitro killing of Colo205 cells [7]
0.375,1.74,0.129,0.0234,0.0311,0.93,6.71,0.301,1.36,0.024,0.112,0.0147,5.07,,"BA-105-01-01 7376-vcMMAE (antibody, V domains shown, antibody conjugated to vcMMAE; chain and residues of attachment not stated) VH: QVQLQQSGAELAKPGASVKVSCKASGYTFTSYWMHWVKQRPGQGLEWIGYIRPSTGYTEYNQKFKDKATLTADKSSSTAYMQLSSLTFEDSAVYYCGRGDNWVGFANWGQGTLVTVSA VL: QIVLTQSPAIMSASLGEEIALTCSASSSISYMHWYQQKSGTSPKLLIYSTSNLASGVPSRFSGSGSGTFYSLTISSVEAEDAADYFCHQWSTYHTFGSGTKLEIK",12.9,16.8,1.3
0.153,17.7,0.0637,0.257,0.0877,2.75,,0.15,4.72,0.0392,0.0849,0.127,6.3,1.75,"BA-105.4-01-02 8316-vcMMAE (antibody, V domains shown, antibody conjugated to vcMMAE; chain and residues of attachment not stated) VH: EVQLVQSGAEVKKPGESLRISCKGSGYTFTSYWMHWIRQSPSRGLEWLGYIRPSTGYTEYNQKFKDRVTISADKSISTAYLQWSSLKASDTAMYYCGRGDNWVGFANWGQGTLVTVSS VL: EIVLTQSPDFQSVTPKEKVTITCSASSSISYMHWYQQKPGKAPKLLIYSTSNLASGVPDRFSGSGSGTDFTLKISRVEAEDVGVYYCHQWSTYETFGQGTKVEIK",,,
0.203,43.4,0.0772,0.3,0.0659,2.76,6.98,0.188,5.54,0.0306,0.109,0.0703,6.28,2.39,"BA-105.4-01-05 8317-vcMMAE (antibody, V domains shown, antibody conjugated to vcMMAE; chain and residues of attachment not stated) VH: EVQLVQSGAEVKKPGATVKISCKVSGYTFTSYWMHWIRQPPGKGLEWIGYIRPSTGYTEYNQKFKDRFTISRDNSKNTLYLQMNSLRAEDTAVYYCGRGDNWVGFANWGQGTLVTVSS VL: EIVLTQSPDFQSVTPKEKVTITCSASSSISYMHWYQQKPGKAPKLLIYSTSNLASGVPDRFSGSGSGTDFTLKISRVEAEDVGVYYCHQWSTYETFGQGTKVEIK",,,
0.693,61.1,0.206,0.249,0.0809,3.61,6.83,0.464,7.96,0.0324,0.335,0.22,6.16,6.74,"BA-105.4-02-01 8318-vcMMAE (antibody, V domains shown, antibody conjugated to vcMMAE; chain and residues of attachment not stated) VH: EVQLVQSGAEVKKPGATVKISCKVSGYTFTSYWMHWVRQAPGQGLEWMGYIRPSTGYTEYNQKFKDRFTISRDNSKNTLYLQMNSLRAEDTAVYYCGRGDNWVGFANWGQGTLVTVSS VL: EIVMTQSPATLSVSPGERATLSCSASSSISYMHWYQQKPGKAPKLLIYSTSNLASGVPSRFSGSGSGTEFTLTISSLQPDDFATYYCHQWSTYETFGQGTKVEIK",,,
